In the supplement of paper PMC7877785:
± gives the uncertainty stated by the source.

Assay: self-splicing fitness, log relative to wild type (ln ratio); higher = more splicing; Tetrahymena group I intron in knt gene, E. coli kanamycin selection, DiMSum; sequences stand for … in CUCUCU…GGAGGGAAAAGUUAUCAGGCAUGCACCUGGUAGCUAGUCUUUAAACCAAUAGAUUGCAUCGGUUUAAAAGGCAAGACCGUCAAAUUGCGGGAAAGGGGUCAACAGCCGUUCAGUACCAAGUCUCAGGGGAAACUUUGAGAUGGCCUUGCAAAGGGUAUGGUAAUAAGCUGACGGACAUGGUCCUAACCACGCAGCCAAGUCCUAAGUCAACAGAUCUUCUGUUGAUAUGGAUGCAGUUCACAGACUAAAUGUCGGUCGGGGAAGAUGUAUUCUUCUCAUAAGAUAUAGUCGGACCUCUCCUUAAUGGGAGCUAGCGGAUGAAGUGAUGCAACACUGGAGCCGCUGGGAACUAAUUUGUAUGCGAAAGUAUAUUGAUUAGUUUUGGAGUACUCGUGGUCG
Procedure, shortened: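 DiMSum derived fitness as the error-weighted combination of fold changes across replicates, kanamycin versus no kanamycin, normalised to wild type. E. coli BL21(DE3) held the library, which randomised all eight P1ex-region intron nucleotides within the knt kanamycin-resistance gene on pET-22b(+). Six replicate transformations grew overnight at 37°C or 30°C on LB agar with or without 25 μg/mL kanamycin, also containing 100 μg/mL carbenicillin, 50 μM IPTG and 0.2% rhamnose, and pooled colonies were amplicon-sequenced on an Illumina HiSeq 2500.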

Sequence: CUGUAGCAAUAUUACGCCUG
- self-splicing fitness (ln) (30 °C): -0.759 ± 0.14
- self-splicing fitness (ln) (37 °C): 0.521 ± 0.16

Sequence: CUGUAGCAAUAUUACGCGGC
- self-splicing fitness (ln) (30 °C): -2.51 ± 0.47
- self-splicing fitness (ln) (37 °C): -2.14 ± 0.3

Sequence: CUGUAGCAAUAUUACGCUAC
- self-splicing fitness (ln) (30 °C): -3.21 ± 0.35
- self-splicing fitness (ln) (37 °C): -1.39 ± 0.32

Sequence: CUGUAGCAAUAUUACGCUUU
- self-splicing fitness (ln) (30 °C): -3.83 ± 0.17
- self-splicing fitness (ln) (37 °C): -3.19 ± 0.21

Sequence: CUGUAGCAAUAUUACGGCGU
- self-splicing fitness (ln) (30 °C): -3.75 ± 0.33
- self-splicing fitness (ln) (37 °C): -2.2 ± 0.33

Sequence: CUGUAGCAAUAUUACGGGAA
- self-splicing fitness (ln) (30 °C): -1.49 ± 0.29
- self-splicing fitness (ln) (37 °C): -2.12 ± 0.35

Sequence: CUGUAGCAAUAUUACGUACG
- self-splicing fitness (ln) (30 °C): -1.43 ± 0.21
- self-splicing fitness (ln) (37 °C): -1.05 ± 0.19

Sequence: CUGUAGCAAUAUUACGUACU
- self-splicing fitness (ln) (30 °C): -2.61 ± 0.11
- self-splicing fitness (ln) (37 °C): -1.3 ± 0.13

Sequence: CUGUAGCAAUAUUACGUCAA
- self-splicing fitness (ln) (30 °C): -2.56 ± 0.19
- self-splicing fitness (ln) (37 °C): -1.85 ± 0.19

Sequence: CUGUAGCAAUAUUACGUCCG
- self-splicing fitness (ln) (30 °C): -0.133 ± 0.08
- self-splicing fitness (ln) (37 °C): 0.0507 ± 0.11

Sequence: CUGUAGCAAUAUUACGUCGA
- self-splicing fitness (ln) (30 °C): -2.71 ± 0.35
- self-splicing fitness (ln) (37 °C): -1.06 ± 0.35

Sequence: CUGUAGCAAUAUUACGUUAA
- self-splicing fitness (ln) (30 °C): -3.31 ± 0.33
- self-splicing fitness (ln) (37 °C): -1.49 ± 0.23

Sequence: CUGUAGCAAUAUUACGUUGA
- self-splicing fitness (ln) (30 °C): -2.93 ± 0.2
- self-splicing fitness (ln) (37 °C): -2.43 ± 0.2

Sequence: CUUAAGCAAUAUUACGAAAU
- self-splicing fitness (ln) (30 °C): -3.41 ± 0.24
- self-splicing fitness (ln) (37 °C): -2.48 ± 0.26

Sequence: CUUAAGCAAUAUUACGACAA
- self-splicing fitness (ln) (30 °C): -2.75 ± 0.41
- self-splicing fitness (ln) (37 °C): -2.98 ± 0.34

Sequence: CUUAAGCAAUAUUACGACGG
- self-splicing fitness (ln) (30 °C): -0.508 ± 0.1
- self-splicing fitness (ln) (37 °C): -0.291 ± 0.13

Sequence: CUUAAGCAAUAUUACGAGGU
- self-splicing fitness (ln) (30 °C): -1.3 ± 0.14
- self-splicing fitness (ln) (37 °C): -3.09 ± 0.26

Sequence: CUUAAGCAAUAUUACGAUAC
- self-splicing fitness (ln) (30 °C): -2.53 ± 0.36
- self-splicing fitness (ln) (37 °C): -2.33 ± 0.5

Sequence: CUUAAGCAAUAUUACGCAUA
- self-splicing fitness (ln) (30 °C): -3.2 ± 0.32

Sequence: CUUAAGCAAUAUUACGCCGG
- self-splicing fitness (ln) (30 °C): -4.01 ± 0.33
- self-splicing fitness (ln) (37 °C): -1.85 ± 0.25

Sequence: CUUAAGCAAUAUUACGCGUG
- self-splicing fitness (ln) (30 °C): -2.99 ± 0.15
- self-splicing fitness (ln) (37 °C): -1.26 ± 0.12

Sequence: CUUAAGCAAUAUUACGCUAU
- self-splicing fitness (ln) (30 °C): -1.59 ± 0.32
- self-splicing fitness (ln) (37 °C): -1.8 ± 0.33

Sequence: CUUAAGCAAUAUUACGCUGA
- self-splicing fitness (ln) (30 °C): -3.94 ± 0.39
- self-splicing fitness (ln) (37 °C): -1.17 ± 0.25

Sequence: CUUAAGCAAUAUUACGGAAC
- self-splicing fitness (ln) (37 °C): -1.89 ± 0.3

Sequence: CUUAAGCAAUAUUACGGCAA
- self-splicing fitness (ln) (30 °C): -2.7 ± 0.42
- self-splicing fitness (ln) (37 °C): -2.57 ± 0.38

Sequence: CUUAAGCAAUAUUACGGCAG
- self-splicing fitness (ln) (30 °C): -0.565 ± 0.099
- self-splicing fitness (ln) (37 °C): -0.3 ± 0.12

Sequence: CUUAAGCAAUAUUACGGGAG
- self-splicing fitness (ln) (30 °C): -3.42 ± 0.27
- self-splicing fitness (ln) (37 °C): -2.67 ± 0.27

Sequence: CUUAAGCAAUAUUACGGUGA
- self-splicing fitness (ln) (30 °C): -3.72 ± 0.24
- self-splicing fitness (ln) (37 °C): -2.17 ± 0.19

Sequence: CUUAAGCAAUAUUACGGUGC
- self-splicing fitness (ln) (30 °C): -3.83 ± 0.17
- self-splicing fitness (ln) (37 °C): -2.25 ± 0.2

Sequence: CUUAAGCAAUAUUACGUACC
- self-splicing fitness (ln) (30 °C): -2.7 ± 0.35
- self-splicing fitness (ln) (37 °C): -0.17 ± 0.47

Sequence: CUUAAGCAAUAUUACGUCAC
- self-splicing fitness (ln) (30 °C): -3.97 ± 0.29
- self-splicing fitness (ln) (37 °C): -2.91 ± 0.3

Sequence: CUUCAGCAAUAUUACGACAG
- self-splicing fitness (ln) (30 °C): -0.695 ± 0.069
- self-splicing fitness (ln) (37 °C): -0.281 ± 0.093

Sequence: CUUCAGCAAUAUUACGACAU
- self-splicing fitness (ln) (30 °C): -3.599 ± 0.023
- self-splicing fitness (ln) (37 °C): -2.28 ± 0.036

Sequence: CUUCAGCAAUAUUACGAGAC
- self-splicing fitness (ln) (30 °C): -4.24 ± 0.34
- self-splicing fitness (ln) (37 °C): -3.01 ± 0.34

Sequence: CUUCAGCAAUAUUACGAUAU
- self-splicing fitness (ln) (30 °C): -3.28 ± 0.22
- self-splicing fitness (ln) (37 °C): -1.73 ± 0.27

Sequence: CUUCAGCAAUAUUACGCAAA
- self-splicing fitness (ln) (30 °C): -2.99 ± 0.26
- self-splicing fitness (ln) (37 °C): -2.21 ± 0.33

Sequence: CUUCAGCAAUAUUACGCAGC
- self-splicing fitness (ln) (30 °C): -2.04 ± 0.22
- self-splicing fitness (ln) (37 °C): -1.5 ± 0.32
